Laboratory results taken from US20240002531A1 (ONO PHARMACEUTICAL, published 2024).
Like-named read-outs stand apart in the source and are kept apart here. Blank lines part the entries; values can stand above or below the binder they belong to.

Columns and labels:
Experiment in all cases: peptide ELISA, OD 655 nm
[1] = molecular target: T1, G603A peptide (HER2 603-622 with G603A) (human)
T1 peptide: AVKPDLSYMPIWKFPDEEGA

[2] = molecular target: T2, G621A peptide (HER2 603-622 with G621A) (human)
T2 peptide: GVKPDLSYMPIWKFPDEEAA

[3] = molecular target: T3, HER2 peptide p603-622 (amino acids 603 to 622 of human HER2) (human)
T3 construct: Synthetic peptide; also called wild-type HER2 peptide
T3 peptide: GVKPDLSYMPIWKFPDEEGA

[4] = molecular target: T4, I613A peptide (HER2 603-622 with I613A) (human)
T4 construct: also called 1613A
T4 peptide: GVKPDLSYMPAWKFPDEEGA

[5] = molecular target: T5, K605A peptide (HER2 603-622 with K605A) (human)
T5 peptide: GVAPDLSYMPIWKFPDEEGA

[6] = molecular target: T6, D618A peptide (HER2 603-622 with D618A) (human)
T6 peptide: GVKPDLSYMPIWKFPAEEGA

[7] = molecular target: T7, K615A peptide (HER2 603-622 with K615A) (human)
T7 peptide: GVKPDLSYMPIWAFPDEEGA

[8] = molecular target: T8, E619A peptide (HER2 603-622 with E619A) (human)
T8 peptide: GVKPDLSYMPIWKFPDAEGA

[9] = molecular target: T9, V604A peptide (HER2 603-622 with V604A) (human)
T9 peptide: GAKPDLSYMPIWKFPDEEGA

[10] = molecular target: T10, F616A peptide (HER2 603-622 with F616A) (human)
T10 peptide: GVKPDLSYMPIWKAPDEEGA

[11] = molecular target: T11, S609A peptide (HER2 603-622 with S609A) (human)
T11 peptide: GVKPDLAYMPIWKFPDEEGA

[12] = molecular target: T12, M611A peptide (HER2 603-622 with M611A) (human)
T12 peptide: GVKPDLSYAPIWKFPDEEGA

[13] = molecular target: T13, Y610A peptide (HER2 603-622 with Y610A) (human)
T13 peptide: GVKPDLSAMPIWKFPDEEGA

[14] = molecular target: T14, E620A peptide (HER2 603-622 with E620A) (human)
T14 peptide: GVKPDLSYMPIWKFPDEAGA

[15] = molecular target: T15, P617A peptide (HER2 603-622 with P617A) (human)
T15 peptide: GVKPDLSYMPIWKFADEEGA

[16] = molecular target: T16, P612A peptide (HER2 603-622 with P612A) (human)
T16 peptide: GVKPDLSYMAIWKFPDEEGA

[17] = molecular target: T17, D607A peptide (HER2 603-622 with D607A) (human)
T17 peptide: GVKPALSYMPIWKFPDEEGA

[18] = molecular target: T18, W614A peptide (HER2 603-622 with W614A) (human)
T18 peptide: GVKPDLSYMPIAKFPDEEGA

[19] = molecular target: T19, L608A peptide (HER2 603-622 with L608A) (human)
T19 peptide: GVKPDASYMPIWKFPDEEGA

[20] = molecular target: T20, P606A peptide (HER2 603-622 with P606A) (human)
T20 peptide: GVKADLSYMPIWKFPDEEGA

[21] = molecular target: T21, HER2_604-622C peptide (NH2-VKPDLSYMPIWKFPDEEGAC-COOH) (human)
T21 construct: KLH was added for immunisation, the peptide itself was coated in the screening ELISA
T21 peptide: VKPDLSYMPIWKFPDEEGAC

[22] = molecular target: T1, G603A peptide (HER2 603-622 with G603A)
[23] = molecular target: T2, G621A peptide (HER2 603-622 with G621A)
[24] = molecular target: T3, HER2 peptide p603-622 (amino acids 603 …)
[25] = molecular target: T4, I613A peptide (HER2 603-622 with I613A)
[26] = molecular target: T5, K605A peptide (HER2 603-622 with K605A)
[27] = molecular target: T6, D618A peptide (HER2 603-622 with D618A)
[28] = molecular target: T7, K615A peptide (HER2 603-622 with K615A)
[29] = molecular target: T8, E619A peptide (HER2 603-622 with E619A)
[30] = molecular target: T9, V604A peptide (HER2 603-622 with V604A)
[31] = molecular target: T10, F616A peptide (HER2 603-622 with F616A)
[32] = molecular target: T11, S609A peptide (HER2 603-622 with S609A)
[33] = molecular target: T12, M611A peptide (HER2 603-622 with M611A)
[34] = molecular target: T13, Y610A peptide (HER2 603-622 with Y610A)
[35] = molecular target: T14, E620A peptide (HER2 603-622 with E620A)
[36] = molecular target: T15, P617A peptide (HER2 603-622 with P617A)
[37] = molecular target: T16, P612A peptide (HER2 603-622 with P612A)
[38] = molecular target: T17, D607A peptide (HER2 603-622 with D607A)
[39] = molecular target: T18, W614A peptide (HER2 603-622 with W614A)
[40] = molecular target: T19, L608A peptide (HER2 603-622 with L608A)
[41] = molecular target: T20, P606A peptide (HER2 603-622 with P606A)
[42] = molecular target: T21, HER2_604-622C peptide …

B1: H2Mab-283 antibody (antibody, mouse IgG1, kappa, V domains shown)
VH: EVQLVESGGGLVQPGGSLKLSCAASGFTFSSYGMSWVRQTPDKRLELVATINSNGGSTFYPDSVKGRFTISRDNAKNTLYLHMSSLKSEDTAIYYCVSPGSWFPYWGRGTLVTVSA
VL: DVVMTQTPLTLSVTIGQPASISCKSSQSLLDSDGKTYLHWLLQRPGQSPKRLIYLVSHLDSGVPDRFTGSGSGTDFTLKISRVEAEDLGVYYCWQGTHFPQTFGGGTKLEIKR
binding result [1]: binds
binding result [2]: binds
binding result [3]: binds
binding result [4]: binds
binding result [5]: binds
binding result [6]: binds
binding result [7]: binds
binding result [8]: binds
binding result [9]: binds
binding result [10]: binds
binding result [11]: binds
binding result [12]: binds
binding result [13]: binds
binding result [14]: binds
binding result [15]: binds
binding result [16]: binds
binding result [17]: binds
binding result [18]: no binding (tested: 10 ug/ml)
binding result [19]: binds
binding result [20]: binds
binding result [21]: binds

B2: H2Mab-280 antibody (antibody, mouse IgG1, kappa, V domains shown)
VH: DVKLVESGGGLVKPGGSLKLSCAASGFTFSSYSMSWVRQTPEKRLEWVAIISSGGSYTFYPDSVKGRFTISRDNAKNTLYLQMSSLKSEDTAMYHCTREAGDYWGQGTTLTVSS
VL: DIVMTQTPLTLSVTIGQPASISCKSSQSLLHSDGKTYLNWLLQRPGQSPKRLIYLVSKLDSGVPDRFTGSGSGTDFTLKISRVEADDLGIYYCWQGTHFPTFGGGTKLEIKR
binding result [22]: binds
binding result [23]: binds
binding result [24]: binds
binding result [25]: binds
binding result [26]: binds
binding result [27]: binds
binding result [28]: binds
binding result [29]: binds
binding result [30]: binds
binding result [31]: binds
binding result [32]: binds
binding result [33]: binds
binding result [34]: binds
binding result [35]: binds
binding result [36]: binds
binding result [37]: binds
binding result [38]: binds
binding result [39]: no binding (tested: 10 ug/ml)
binding result [40]: binds
binding result [41]: binds
binding result [42]: binds

More lines, now with the values ahead:

binding result [22]: binds
binding result [23]: binds
binding result [24]: binds
binding result [25]: binds
binding result [26]: binds
binding result [27]: binds
binding result [28]: binds
binding result [29]: binds
binding result [30]: binds
binding result [31]: no binding (tested: 10 ug/ml)
binding result [32]: binds
binding result [33]: binds
binding result [34]: binds
binding result [35]: binds
binding result [36]: binds
binding result [37]: binds
binding result [38]: binds
binding result [39]: binds
binding result [40]: binds
binding result [41]: binds
binding result [42]: binds
B3: H2Mab-282 antibody (antibody, mouse IgG2a, kappa, V domains shown)
VH: QVQLQQSGAELSRPGASVKMSCKAAGYTFSSYMIHWVKQRPGQGLEWIGYINPSSGYSNYNQKFKDKATLTADKSSSTAYMQLSSLTSEDSAVYYCAFYDYDGDWGQGTLVTVSA
VL: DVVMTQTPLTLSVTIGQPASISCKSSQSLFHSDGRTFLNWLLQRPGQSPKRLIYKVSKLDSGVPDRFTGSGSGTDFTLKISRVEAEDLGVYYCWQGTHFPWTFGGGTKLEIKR

binding result [22]: binds
binding result [23]: binds
binding result [24]: binds
binding result [25]: binds
binding result [26]: binds
binding result [27]: binds
binding result [28]: binds
binding result [29]: binds
binding result [30]: binds
binding result [31]: binds
binding result [32]: binds
binding result [33]: binds
binding result [34]: binds
binding result [35]: binds
binding result [36]: binds
binding result [37]: binds
binding result [38]: binds
binding result [39]: binds
binding result [40]: binds
binding result [41]: binds
binding result [42]: binds
B4: H2Mab-279 antibody (antibody, mouse IgG3, V domains shown)
VH: EVQLVESGGGLVQPGGSLKLSCAASGFSFSSYGIFWVRQTPDKRLELVATIKSNGGRTYYPDSVKGRFTISRDNAKNTLHLQMSSLKSEDTAMYYCAREGGDYWGQGTSVTVSS
VL: DIVMTQSHKIMSTSVGDRVSISCKASQDVGTAVAWYQQKPGQSPILLIYWASTRHTGVPDRFTGSGSGTDFTLTISNVQSEDLADYFCQQYKSNPLTFGAGTKLELKR
